Data set [1] is described as follows: Insulin release from CLIP fabricated PAA cylinders dissolved in water (sandwich ELISA). In kind it is physicochemical. From the text:
Insulin (Sigma) was incorporated into test parts with identical dimensions described in FIG. 22A using CLIP and a resin containing 87.1 wt % acrylic acid monomer, 2.52 wt % DPO photo initiator, 10.4 wt % acetic acid, 0.17 wt % human insulin. Resin of an identical composition, excluding the […] insulin, was used as a negative control for insulin incorporation and release. Parts were fabricated using continuous printing on the CLIP7 apparatus (Carbon 3D) with a drawspeed of 100 mm/hr and 14.5 mW/cm2 light intensity. CLIP fabricated PAA parts were dissolved in 2 mL of water and the solution was then centrifuged at 20,000×g for 10 minutes to remove any insoluble material and insulin release was quantified using an sandwich ELIS A method (3A6 anti-insulin coating antibody, 8E2-HRP detection antibody from AbCam) combined with and an insulin standard curve. Insulin was readily detected in dissolved CLIP fabricated PAA cylinders made with insulin containing resin (FIG. 25) with an average of 0.5 unit/mL insulin (1 unit/cylinder), which was close to the theoretical insulin loading levels of 1 unit per cylinder based on PAA cylinder dry weight (20-22 mg). No insulin was detected in the supernatant of dissolved vehicle control cylinders (FIG. 25), validating the specificity of the ELISA-based insulin assay. […]
A general note: ELISA stands for enzyme-linked immunosorbent assay.

The conditions of data set [2]: value used for insulin loading calculation; cited from earlier work.
The nature of data set [3]: OVA-647 release from CLIP fabricated PAA cylinders dissolved in water (fluorescence plate reader). In kind it is physicochemical. The following applies: PAA cylinder from resin with 0.01 wt % OVA-647, dissolved in 2 mL of water, versus vehicle control cylinders. From the text:
Fluorescently labeled (Alexa Fluor® 647) model vaccine antigen ovalbumin (referred to as OVA-647) was incorporated into a PAA matrix using CLIP and a resin containing […] (Sigma), 2.3 wt % DPO photo initiator (Sigma), […], 0.01 wt % OVA-647 (Invitrogen). Resin of an identical composition, excluding the 0.01 wt % OVA-647, was used as a negative control for OVA-647 incorporation. The shape of the CLIP fabricated test parts was cylindrical with 3 mm diameter×3 mm height, containing a hollowed out center 1.5 mm diameter (FIG. 22A and FIG. 22B). Parts were fabricated using continuous printing on the CLIP7 apparatus (Carbon 3D) with a drawspeed of 100 mm/hr and 8.4 mW/cm2 light intensity. OVA-647 incorporation into CLIP fabricated PAA parts was confirmed using microscopy (FIG. 22C). The OVA-647 and vehicle control PAA cylinders were dissolved in 2 mL of water and the solution was then centrifuged at 20,000×g for 10 minutes to remove any insoluble material and OVA-647 release was measured using a fluorescence plate reader.
Referring to FIG. 23, vehicle PAA cylinders (containing 8.97 wt % water) or OVA-647 resin ([…] in water) were tested. Each bar represents an independent cylinder dissolved in 2 mL of water and the supernatant was measured for OVA-647 fluorescence. Values were normalized to a standard curve of soluble OVA-647. […]

The source of these data is patent US10792857B2, “Polymeric microneedles and rapid additive manufacturing of the same” (The University of North Carolina at Chapel Hill, priority 2015, dated 2020).

For the molecule “Insulin: Human insulin (Sigma) incorporated into CLIP fabricated PAA cylinders”, the “insulin release per cylinder” value in data set [1] (PAA cylinder dissolved in 2 mL of water) was found to be 1 unit/cylinder. Besides, in data set [1] (PAA cylinder from resin with 0.17 wt % human insulin, dissolved in 2 mL of water), the “insulin release, average concentration in dissolved cylinder solution” value is 0.5 unit/mL. In data set [2], the max solubility was 10 mg/mL.

B1: OVA-647: Fluorescently labeled (Alexa Fluor 647) model vaccine antigen ovalbumin, incorporated into PAA cylinders (protein, UniProt P01012 2-386, looked up)
Ovalbumin: GSIGAASMEFCFDVFKELKVHHANENIFYCPIAIMSALAMVYLGAKDSTRTQINKVVRFDKLPGFGDSIEAQCGTSVNVHSSLRDILNQITKPNDVYSFSLASRLYAEERYPILPEYLQCVKELYRGGLEPINFQTAADQARELINSWVESQTNGIIRNVLQPSSVDSQTAMVLVNAIVFKGLWEKAFKDEDTQAMPFRVTEQESKPVQMMYQIGLFRVASMASEKMKILELPFASGTMSMLVLLPDEVSGLEQLESIINFEKLTEWTSSNVMEERKIKVYLPRMKMEEKYNLTSVLMAMGITDVFSSSANLSGISSAESLKISQAVHAAHAEINEAGREVVGSAEAGVDAASVSEEFRADHPFLFCIKHIATNAVLFFGRCVSP
modifications: Alexa Fluor 647 label
notes: Fluorescently labeled (Alexa Fluor 647) model vaccine antigen ovalbumin, incorporated into PAA cylinders
Take B1: the “OVA-647 release (fluorescence in supernatant)” value in data set [3] is recorded as “readily detected above background florescence levels”.
